Experimental data published in patent publication US20160282364.

Tested on: insulin

Substance: recombinant human IDE42-1019 (R&D Systems)
- degradation of insulin by IDE (HTRF insulin assay, 0.4 µg/mL IDE, 10 ng/mL insulin, 30° C., 15 min): ˜75% degradation of insulin
